Assay results reported in patent US20200199216A1 (KINDRED BIOSCIENCES, published 2020).

T1: canine IL4 (biotinylated) (canine, UniProt O77762 25-132, biotinylated)
T1 construct: Used only to capture the IL4R/IL13R-Fc fusions on streptavidin sensor tips; also called Biotinylated canine IL4
T1 sequence (looked up): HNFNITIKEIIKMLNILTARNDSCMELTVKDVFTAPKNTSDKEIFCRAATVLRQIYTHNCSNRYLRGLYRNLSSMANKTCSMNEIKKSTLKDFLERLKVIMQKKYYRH

T2: canine IL17A (as used at 1 nM in the H1080 cell assay) (canine)
T2 chain: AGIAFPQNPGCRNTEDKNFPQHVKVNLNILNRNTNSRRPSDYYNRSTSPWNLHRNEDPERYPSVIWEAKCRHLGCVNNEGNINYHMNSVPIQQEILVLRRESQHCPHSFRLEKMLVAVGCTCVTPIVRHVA

T3: canine IL17F-polyHis (canine, biotinylated in the biosensor assay)
T3 construct: also called IL17F homodimer; not shown: poly-His tag on the C-terminal
T3 chain: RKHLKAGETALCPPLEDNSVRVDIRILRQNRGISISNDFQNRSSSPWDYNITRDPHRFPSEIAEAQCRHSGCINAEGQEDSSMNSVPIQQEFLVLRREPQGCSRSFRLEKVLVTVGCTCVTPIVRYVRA


Tests used:
[1] = biological target: T1, canine IL4 (biotinylated); test: BLI capture step; biotinylated canine IL4 on streptavidin sensor tips, fusion at 25 µg/mL
Method: (§1) The determine the binding affinity of C1q to canine IgG-B Fc variant 1, a biosensor binding analysis was performed. In this assay, the affinity of C1q to a fusion protein of a canine IL4 receptor ECD and IL13 receptor ECD (IL4R/IL13R) and canine IgG-B Fc wild-type (IL4R/IL13R-canine IgG-B, SEQ ID NO: 95) or to canine IgG-B Fc variant 1 (IL4R/IL13R-canine IgG-B variant 1, SEQ ID NO: 96) was tested. Briefly, canine IL4 was biotinylated. Biotinylated canine IL4 was captured on streptavidin sensor tips. Either IL4R/IL13R-canine IgG-B wild-type (25 ug/mL) or IL4R/IL13R-canine IgG-B variant 1 (25 μg/mL) were complexed to the IL4-bound biosensors. Subsequently, the complex was used to bind human C1q at 250 μg/mL (Catalog No. 204876-1MG; Sigma Aldrich). Then, the ability of human C1q to bind to either complex was measured. Reduced binding between human C1q and IL4R/IL13R-canine IgG-B variant 1 was observed when compared to IL4R/IL13R-canine IgG-B wild-type.

[2] = biological target: T4, human C1q (Catalog No. 204876-1MG; Sigma Aldrich) (human, UniProt P02745 23-245; P02746 28-253; P02747 29-245); test: BLI; Fc fusion (25 µg/mL) captured on IL4-bound streptavidin sensors, human C1q at 250 µg/mL
T4 construct: Bought protein
Method: as §1

[3] = biological target: T2, canine IL17A (as used at 1 nM in the …); test: cell-based or functional assay
canine IL17F-polyHis = biological target: T3, canine IL17F-polyHis; test: Western blot: SDS-PAGE, PVDF, goat anti-mouse IgG-HRP
Method: Canine IL17A-hFc, feline IL17A-polyHis, equine IL17A-polyHis, and canine IL17F-polyHis (0.6 μg) were each separated by SDS-PAGE and the proteins transferred to PVDF membranes. The blots were probed using Clone A, C, D, or E antibody followed by goat anti-mouse IgG-HRP. In this Western analysis, Clone A, C, and E antibodies immunoreacted to canine and equine IL17A, but not to feline IL17A or canine IL17F. Clone D antibody immunoreacted to canine, feline, and equine IL17A, but not to canine IL17F.

T4 sequence (P02745 23-245 limits assumed, chain 1 of 3): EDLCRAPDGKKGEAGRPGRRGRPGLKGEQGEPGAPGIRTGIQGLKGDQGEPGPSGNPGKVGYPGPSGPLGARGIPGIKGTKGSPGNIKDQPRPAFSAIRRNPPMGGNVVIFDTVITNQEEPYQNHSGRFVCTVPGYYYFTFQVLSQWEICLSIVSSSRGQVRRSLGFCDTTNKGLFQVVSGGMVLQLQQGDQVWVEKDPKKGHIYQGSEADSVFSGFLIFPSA
T4 sequence (P02746 28-253 limits assumed, chain 2 of 3): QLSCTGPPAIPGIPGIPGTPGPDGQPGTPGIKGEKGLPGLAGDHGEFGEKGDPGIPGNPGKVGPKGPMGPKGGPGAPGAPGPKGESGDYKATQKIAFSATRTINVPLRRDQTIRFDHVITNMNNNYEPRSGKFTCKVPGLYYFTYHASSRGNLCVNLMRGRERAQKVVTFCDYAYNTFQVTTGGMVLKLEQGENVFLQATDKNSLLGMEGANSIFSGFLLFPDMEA
T4 sequence (P02747 29-245 limits assumed, chain 3 of 3): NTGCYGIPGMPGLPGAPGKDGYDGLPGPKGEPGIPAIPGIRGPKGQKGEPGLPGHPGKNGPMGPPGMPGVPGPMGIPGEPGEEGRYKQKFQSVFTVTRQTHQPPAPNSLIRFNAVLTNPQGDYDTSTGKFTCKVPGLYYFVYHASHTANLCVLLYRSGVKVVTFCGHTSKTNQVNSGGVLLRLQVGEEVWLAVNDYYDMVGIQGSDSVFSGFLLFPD

binding result [1]	binding result [2]	EC50 (ng/mL), H1080 Cell Functional Assay (IL6 secretion) [3]	Binder	binding result (canine IL17F-polyHis)
binds	binds		IL4R/IL13R-canine IgG-B wild-type (Fc fusion) TETQPPVTNLSVSVENLCTVIWTWDPPEGASPNCTLRYFSHFDNKQDKKIAPETHRSKEVPLNERICLQVGSQCSTNESDNPSILVEKCTPPPEGDPESAVTELQCVWHNLSYMKCTWLPGRNTSPDTNYTLYYWHSSLGKILQCEDIYREGQHIGCSFALTNLKDSSFEQHSVQIVVKDNAGKIRPSFNIVPLTSHVKPDPPHIKRLFFQNGNLYVQWKNPQNFYSRCLSYQVEVNNSQTETNDIFYVEEAKCQNSEFEGNLEGTICFMVPGVLPDTLNTVRIRVRTNKLCYEDDKLWSNWSQAMSIGENTDPTGGGSGSGSVKVLHEPSCFSDYISTSVCQWKMDHPTNCSAELRLSYQLDFMGSENHTCVPENREDSVCVCSMPIDDAVEADVYQLDLWAGQQLLWSGSFQPSKHVKPRTPGNLTVHPNISHTWLLMWTNPYPTENHLHSELTYMVNVSNDNDPEDFKVYNVTYMGPTLRLAASTLKSGASYSARVRAWAQTYNSTWSDWSPSTTWLNYYEPKRENGRVPRPPDCPKCPAPEMLGGPSVFIFPPKPKDTLLIARTPEVTCVVVDLDPEDPEVQISWFVDGKQMQTAKTQPREEQFNGTYRVVSVLPIGHQDWLKGKQFTCKVNNKALPSPIERTISKARGQAHQPSVYVLPPSREELSKNTVSLTCLIKDFFPPDIDVEWQSNGQQEPESKYRTTPPQLDEDGSYFLYSKLSVDKSRWQRGDTFICAVMHEALHNHYTQESLSHSPGK	
binds	binds		IL4R/IL13R-canine IgG-B variant 1 (C1q binding mutant) (Fc fusion) TETQPPVTNLSVSVENLCTVIWTWDPPEGASPNCTLRYFSHFDNKQDKKIAPETHRSKEVPLNERICLQVGSQCSTNESDNPSILVEKCTPPPEGDPESAVTELQCVWHNLSYMKCTWLPGRNTSPDTNYTLYYWHSSLGKILQCEDIYREGQHIGCSFALTNLKDSSFEQHSVQIVVKDNAGKIRPSFNIVPLTSHVKPDPPHIKRLFFQNGNLYVQWKNPQNFYSRCLSYQVEVNNSQTETNDIFYVEEAKCQNSEFEGNLEGTICFMVPGVLPDTLNTVRIRVRTNKLCYEDDKLWSNWSQAMSIGENTDPTGGGSGSGSVKVLHEPSCFSDYISTSVCQWKMDHPTNCSAELRLSYQLDFMGSENHTCVPENREDSVCVCSMPIDDAVEADVYQLDLWAGQQLLWSGSFQPSKHVKPRTPGNLTVHPNISHTWLLMWTNPYPTENHLHSELTYMVNVSNDNDPEDFKVYNVTYMGPTLRLAASTLKSGASYSARVRAWAQTYNSTWSDWSPSTTWLNYYEPKRENGRVPRPPDCPKCPAPEMLGGPSVFIFPPKPKDTLLIARTPEVTCVVVDLDPEDPEVQISWFVDGKQMQTAKTQPREEQFNGTYRVVSVLPIGHQDWLKGKQFTCRVNNKALPSPIERTISKARGQAHQPSVYVLPPSREELSKNTVSLTCLIKDFFPPDIDVEWQSNGQQEPESKYRTTPPQLDEDGSYFLYSKLSVDKSRWQRGDTFICAVMHEALHNHYTQESLSHSPGK	
		13 ng/mL	mouse monoclonal antibody Clone A (antibody, IgG1, V domains shown, Hybridoma antibody; also called antibody A) VH: QVQLKESGPGLVAPSQSLSITCTISGFSLTSNGVHWVRQSPGKDLEWLVVIWSDGTTTYNSDFKSRLSISKDNSKSQVFLKMNSLQTDDTAMYYCARHYDWGYYYAMDYWGQGTSVTVSS VL: DVVMTQTPLSLPVSLGDQASISCRSSQSLVHSNGNTYLHWYLQRPGQSPNLLIYKVSNRFSGVPDRFSGSGSGTDFTLKISRVEAEDLGVYFCSQSTHVPFTFGSGTKLEIK	no binding (tested: 0.6 µg of target per lane)
		40 ng/mL	mouse monoclonal antibody Clone E (antibody, mouse IgG1, V domains shown, Hybridoma antibody; also called antibody E) VH: QVQLKESGPGLVAPSQSLSITCTISGFSLTSNGVHWVRQPPGKGLEWLVVIWSDGTTTYNSALKSRLSISKDNSKSQVFLKMNSLQTDDTAMYYCARHYDRGYYYAMDYWGQGTSVTVSS VL: DVVMTQTPLSLPVSLGDQASISCRSSQSLVHSNGNTYFHWYLQKPGQSPKLLIYKVSNRFSGVPDRFSGSGSGTDFTLKISRVEAEDLGVYFCSQSTHAPFTFGSGTKLEIK	no binding (tested: 0.6 µg of target per lane)
